Consider ten substances from PMC4671672.

In assay [1] the target is FLAG-NKX2-5 (mouse NKX2-5, pEF-FLAG-NKX2-5) (mouse) (UniProt P42582). Description: co-IP; protein extracts of COS-1 cells expressing FLAG-NKX2-5 (50 ug) and of COS-1 cells expressing GATA4 (30-84 ug) mixed; agarose bound anti-FLAG M2 antibody, overnight at +4°C in lysis buffer (20 mM Tris pH 7.5, 150 mM NaCl, 1 mM EDTA, 1 mM EGTA, 1% Triton X-100, 2.5 mM sodium pyrophosphate); immunoblot with anti-GATA4 and anti-NKX2-5; bands quantified, unspecific binding subtracted, normalized to input and to ….
Chain of UniProt P42582 (P42582 whole entry): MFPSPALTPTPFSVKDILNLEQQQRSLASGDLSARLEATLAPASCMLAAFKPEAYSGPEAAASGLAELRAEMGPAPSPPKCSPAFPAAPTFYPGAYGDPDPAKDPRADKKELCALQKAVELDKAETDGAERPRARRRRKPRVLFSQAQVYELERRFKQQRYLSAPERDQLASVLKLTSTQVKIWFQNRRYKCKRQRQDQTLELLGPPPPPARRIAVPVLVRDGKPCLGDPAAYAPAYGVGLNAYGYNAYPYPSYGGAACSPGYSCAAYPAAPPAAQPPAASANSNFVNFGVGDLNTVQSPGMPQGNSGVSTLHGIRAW

The target is the same in assay [2].

The substance mouse GATA4 R264A (natural protein) showed a percent decrease of binding vs wtGATA4 in assay [1] of 36%. For the substance mouse GATA4 N272S (natural protein), the GATA4-NKX2-5 transcriptional synergy, 3xNKE luciferase reporter, COS-1 cells; reduction vs wtGATA4 in assay [2] is 65%. Substance mouse GATA4 R319C (natural protein) had a percent decrease of binding vs wtGATA4 in assay [1] of 89%.

In turn, mouse GATA4 Q274H (natural protein) came in with a percent decrease of binding vs wtGATA4 in assay [1] of 47%. In the case of mouse GATA4 K299A (natural protein), the percent decrease of binding vs wtGATA4 in assay [1] came to 61%. Regarding mouse GATA4 N272D (natural protein), the GATA4-NKX2-5 transcriptional synergy, 3xNKE luciferase reporter, COS-1 cells; reduction vs wtGATA4 in assay [2] is 79%. Take mouse GATA4 M298Y (natural protein): the percent decrease of binding vs wtGATA4 in assay [1] came out at 62%. As for mouse GATA4 V217Y (natural protein), in assay [1], the percent increase of binding vs wtGATA4 was found to be 235%. Also, in assay [2], the GATA4-NKX2-5 transcriptional synergy, 3xNKE luciferase reporter, COS-1 cells; vs wtGATA4-NKX2-5 is 146%.

On to mouse GATA4 R283Q (natural protein), for which the percent decrease of binding vs wtGATA4 in assay [1] was determined as 91%.

Turning to mouse GATA4 R283A (natural protein), in assay [1], the percent decrease of binding vs wtGATA4 is 84%.
